Results published in patent US20120114590A1 (priority 2005, published 2012).
Where two headings read alike, the source gives them in different places.

What was measured:
[1] = system: 293 HEK cells overexpressing zcytor19; experiment: Inhibition of ligand-induced ISRE-luciferase signaling by soluble receptors; type: cell-based, human; settings: 10 ng/ml ligand, 10 micrograms/ml soluble receptor, 4-hour; relative to PBS alone
Pichinde virus = type: cell-based
[2] = system: Influenza (type A [H3N2]); type: cell-based; settings: Vero
AML-12 cells = experiment: ISG induction in the mouse liver cell line AML-12 (real-time PCR); type: cell-based; settings: AML-12, 20 ng/ml, 48 hour time point; mRNA relative to HPRT gene expression
Method: AML-12 cells were plated in 6-well plates in complete DMEM media at a concentration of 2×10^6 cells/well. […] As a control, cells were either stimulated with mouse IFNα (positive control) or unstimulated (negative). […] RNA was isolated from cell pellets using RNAEasy-kit® (Qiagen, Valencia, Calif.). RNA was treated with DNase (Millipore, Billerica, Mass.) to clean RNA of any contaminating DNA. cDNA was generated using Perkin-Elmer RT mix. ISG gene induction was evaluated by real-time PCR using primers and probes specific for mouse OAS, Pkr and Mx1. To obtain quantitative data, HPRT real-time PCR was duplexed with ISG PCR. A standard curve was obtained using known amounts of RNA from IFN-stimulated mouse PBLs. All data are shown as expression relative to internal HPRT expression.

[3] = system: liver, spleen and blood of mice; experiment: ISG gene expression (OAS, Pkr, Mx1) in liver, spleen and blood of injected C57BL/6 mice (real-time PCR); type: in vivo, mouse; settings: for OAS-1 hr / OAS-6 hr / OAS-24 hr / OAS-48 hr: single injection of 250 μg i.v., average of 5 animals; for OAS (24 hr): fold expression relative to HPRT
Method: Mice were sacrificed at various time points (1 hr-48 hr). Spleens and livers were isolated from mice, and RNA was isolated. RNA was also isolated from the blood cells. The cells were pelleted and RNA isolated from pellets using RNAEasy®-kit (Qiagen). RNA was treated with DNase (Amicon) to rid RNA of any contaminating DNA. cDNA was generated using Perkin-Elmer RT mix (Perkin-Elmer). ISG gene induction was measured by real-time PCR using primers and probes specific for mouse OAS, Pkr and Mx1. To obtain quantitative data, HPRT real-time PCR was duplexed with ISG PCR. A standard curve was calculated using known amounts of IFN-stimulated mouse PBLs. All data are shown as expression relative to internal HPRT expression.

[4] = system: Influenza (type A [H3N2]); type: cell-based; settings: Maden-Darby Canine Kidney
Adenovirus = type: cell-based; settings: A549 cells, Neutral Red Assay
adenoviral vector AdGFP = experiment: Adenoviral vector (AdGFP) liver pathology model in C57Bl/6 mice; settings: AdGFP-infected C57Bl/6 mice, 50 μg i.p., 7 doses
EMCV = EMCV antiviral assay (MTT dye uptake) in HepG2 cells; type: cell-based, encephalomyocarditis virus; settings: cytokine 24 hours before EMCV challenge
HHV-8 = HHV-8 replication in BCBL-1 cells (TaqMan PCR extracellular HHV-8 DNA; dye uptake TC50); type: cell-based, human herpesvirus-8
Method: The therapeutic index (TI) is calculated as TC50/IC50.

Vaccinia virus = type: cell-based; settings: Vero cells, Neutral Red Assay
[5] = system: Influenza (type A [H3N2]); type: cell-based; settings: Vero cells, Neutral Red Assay
West Nile virus = type: cell-based; settings: Vero cells, Neutral Red Assay
Parainfluenza virus = type: cell-based; settings: MA-104 cells, Neutral Red Assay

B1: IL-29: human IL-29 cytokine polypeptide (zcyto21), e.g. SEQ ID NO:20 (protein, listed as Homo sapiens)
chain: MAAAWTVVLVTLVLGLAVAGPVPTSKPTTTGKGCHIGRFKSLSPQELASFKKARDALEESLKLKNWSCSSPVFPGNWDLRLLQVRERPVALEAELALTLKVLEAAAGPALEDVLDQPLHTLHHILSQLQACIQPQPTAGPRPRGRLHHWLHRLQEAPKKESAGCLEASVTFNLFRLLTRDLKYVADGNLCLRTSTHPEST
modifications: SIGNAL (1)...(19)
Percent Inhibition of Ligand-induced ISRE Signaling by HuCRF2-4-Fc [1]: 79% | Percent Inhibition of Ligand-induced ISRE Signaling by Huzcytor19-Fc [1]: 45% | Percent Inhibition of Ligand-induced ISRE Signaling by Huzcytor19-Fc/huCRF2-4-Fc [1]: 16% | Percent Inhibition of Ligand-induced ISRE Signaling by Muzcytor19-Ig [1]: 103% | EC50 NR (Pichinde virus): >10 µg/mL | IC50 NR (Pichinde virus): >10 µg/mL | EC50 Visual [2]: >10 µg/mL | IC50 Visual ([2]; numerator of SI): >10 µg/mL | Mx1 (AML-12 cells): 0.07 | OAS (AML-12 cells): 0.04 | PkR (AML-12 cells): 0.02 | sustained expression of ISGs above control mice ([3]; C57BL/6 mice): up to 48 hours | time of peak expression of ISGs after injection ([3]; C57BL/6 mice): 1 to 6 h | ISG gene expression (OAS, Pkr, Mx1) in the livers, spleen and blood of mice ([3]; C57BL/6 mice, i.p or i.v, 10 μg-250 μg): induced ISG gene expression | OAS-1 hr ([3]; blood, C57BL/6 mice): 12 fold expression relative to HPRT gene expression | OAS-6 hr ([3]; blood, C57BL/6 mice): 18 fold expression relative to HPRT gene expression | OAS-24 hr ([3]; blood, C57BL/6 mice): 11 fold expression relative to HPRT gene expression | OAS-48 hr ([3]; blood, C57BL/6 mice): 10 fold expression relative to HPRT gene expression | OAS-1 hr ([3]; liver, C57BL/6 mice): 2.5 fold expression relative to HPRT gene expression | OAS-6 hr ([3]; liver, C57BL/6 mice): 4 fold expression relative to HPRT gene expression | OAS-24 hr ([3]; liver, C57BL/6 mice): 2.5 fold expression relative to HPRT gene expression | OAS-48 hr ([3]; liver, C57BL/6 mice): 2.8 fold expression relative to HPRT gene expression | OAS (24 hr) ([3]; mice injected with 10 μg): 3.7 | OAS (24 hr) ([3]; mice injected with 50 μg): 4.2 | OAS (24 hr) ([3]; mice injected with 250 μg): 6 | OAS-1 hr ([3]; spleen, C57BL/6 mice): 4 fold expression relative to HPRT gene expression | OAS-6 hr ([3]; spleen, C57BL/6 mice): 6 fold expression relative to HPRT gene expression | OAS-24 hr ([3]; spleen, C57BL/6 mice): 3.2 fold expression relative to HPRT gene expression | OAS-48 hr ([3]; spleen, C57BL/6 mice): 3.2 fold expression relative to HPRT gene expression | EC50 Visual [4]: >10 µg/mL | IC50 Visual ([4]; numerator of SI): >10 µg/mL | EC50 NR (Adenovirus): >10 µg/mL | IC50 NR (Adenovirus): >10 µg/mL | liver histology: cellular changes versus PBS treatment group (adenoviral vector AdGFP): less proliferation of sinusoidal cells, fewer mitotic figures and fewer changes in the hepatocytes | liver histology: liver and inflammation scores versus PBS-treated group (adenoviral vector AdGFP): lower liver and inflammation scores | average serum AST (adenoviral vector AdGFP; n=8): 162 U/L | serum ALT (adenoviral vector AdGFP; n=8): 184 U/L | EC50 (antiviral activity, OD570) (EMCV): 0.0006 µg/mL | TI (TC50/IC50) (HHV-8): > 1.85 | IC50 (extracellular HHV-8 DNA) (HHV-8; six days): 6.5 µg/mL | EC50 NR (Vaccinia virus): >10 µg/mL | IC50 NR (Vaccinia virus): >10 µg/mL | EC50 NR [5]: 2 µg/mL | IC50 NR [5]: >10 µg/mL | EC50 NR (West Nile virus): 0.00025 µg/mL | IC50 NR (West Nile virus): >10 µg/mL | EC50 NR (Parainfluenza virus): >10 µg/mL | IC50 NR (Parainfluenza virus): >10 µg/mL
